Data reported in the supplement of paper PMC10567573.

B1: DVL3 (parent)
chain: HPDPAPFCADNPSELPPPMERTGG

Variants of: B1
Assay: protein stability index of a GFP-peptide fusion (GPS, HEK-293T) (PSI 1-6); higher = more stable
Conditions: c terminus: a fixed tail appended
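Also: lentivirally expressed fusions sorted by FACS into six bins by GFP to DsRed ratio, PSI derived from sequencing read proportions per bin multiplied by bin number.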

Row | Variant | protein stability index
1 | HPDPSPFCADNPSELPPPMERTGG [A5S] | 2.54
2 | HPDPVPFCADNPSELPPPMERTGG [A5V] | 3.62
3 | HPDPWPFCADNPSELPPPMERTGG [A5W] | 2.41
4 | HPDPYPFCADNPSELPPPMERTGG [A5Y] | 3.11
5 | HPDPAAFCADNPSELPPPMERTGG [P6A] | 2.69
6 | HPDPACFCADNPSELPPPMERTGG [P6C] | 3.01
7 | HPDPADFCADNPSELPPPMERTGG [P6D] | 5.21
8 | HPDPAEFCADNPSELPPPMERTGG [P6E] | 4.91
9 | HPDPAFFCADNPSELPPPMERTGG [P6F] | 2.48
10 | HPDPAGFCADNPSELPPPMERTGG [P6G] | 3.57
11 | HPDPAHFCADNPSELPPPMERTGG [P6H] | 3.46
12 | HPDPAIFCADNPSELPPPMERTGG [P6I] | 3
13 | HPDPAKFCADNPSELPPPMERTGG [P6K] | 3.33
14 | HPDPALFCADNPSELPPPMERTGG [P6L] | 2.83
15 | HPDPAMFCADNPSELPPPMERTGG [P6M] | 2.83
16 | HPDPANFCADNPSELPPPMERTGG [P6N] | 4.83
17 | HPDPAQFCADNPSELPPPMERTGG [P6Q] | 4.12
18 | HPDPARFCADNPSELPPPMERTGG [P6R] | 2.91
19 | HPDPASFCADNPSELPPPMERTGG [P6S] | 3.14
20 | HPDPATFCADNPSELPPPMERTGG [P6T] | 3.92
21 | HPDPAVFCADNPSELPPPMERTGG [P6V] | 2.73
22 | HPDPAWFCADNPSELPPPMERTGG [P6W] | 3.3
23 | HPDPAYFCADNPSELPPPMERTGG [P6Y] | 2.46
24 | HPDPAPRCADNPSELPPPMERTGG [F7R] | 5.23

Row | Variant | protein stability index
25 | HPDPAPWCADNPSELPPPMERTGG [F7W] | 2.21
26 | HPDPAPFEADNPSELPPPMERTGG [C8E] | 5.49
27 | HPDPAPFGADNPSELPPPMERTGG [C8G] | 4.65
28 | HPDPAPFRADNPSELPPPMERTGG [C8R] | 2.62
29 | HPDPAPFVADNPSELPPPMERTGG [C8V] | 2.84
30 | HPDPAPFWADNPSELPPPMERTGG [C8W] | 2.74
31 | HPDPAPFCGDNPSELPPPMERTGG [A9G] | 3.27
32 | HPDPAPFCADLPSELPPPMERTGG [N11L] | 2.59
33 | HPDPAPFCADNESELPPPMERTGG [P12E] | 3.19
34 | HPDPAPFCADNKSELPPPMERTGG [P12K] | 2.88
35 | HPDPAPFCADNLSELPPPMERTGG [P12L] | 3.24
36 | HPDPAPFCADNMSELPPPMERTGG [P12M] | 3.54
37 | HPDPAPFCADNNSELPPPMERTGG [P12N] | 2.42
38 | HPDPAPFCADNQSELPPPMERTGG [P12Q] | 2.86
39 | HPDPAPFCADNRSELPPPMERTGG [P12R] | 2.95
40 | HPDPAPFCADNVSELPPPMERTGG [P12V] | 2.3
41 | HPDPAPFCADNWSELPPPMERTGG [P12W] | 2.17
42 | HPDPAPFCADNPSGLPPPMERTGG [E14G] | 2.65
43 | HPDPAPFCADNPSELAPPMERTGG [P16A] | 3.04
44 | HPDPAPFCADNPSELCPPMERTGG [P16C] | 2.38
45 | HPDPAPFCADNPSELDPPMERTGG [P16D] | 2.9
46 | HPDPAPFCADNPSELEPPMERTGG [P16E] | 3.09
47 | HPDPAPFCADNPSELGPPMERTGG [P16G] | 3.1
48 | HPDPAPFCADNPSELHPPMERTGG [P16H] | 2.58

Row | Variant | protein stability index
49 | HPDPAPFCADNPSELIPPMERTGG [P16I] | 2.7
50 | HPDPAPFCADNPSELKPPMERTGG [P16K] | 2.19
51 | HPDPAPFCADNPSELLPPMERTGG [P16L] | 2.42
52 | HPDPAPFCADNPSELMPPMERTGG [P16M] | 3.02
53 | HPDPAPFCADNPSELQPPMERTGG [P16Q] | 3.59
54 | HPDPAPFCADNPSELRPPMERTGG [P16R] | 2.28
55 | HPDPAPFCADNPSELSPPMERTGG [P16S] | 3.19
56 | HPDPAPFCADNPSELVPPMERTGG [P16V] | 2.9
57 | HPDPAPFCADNPSELWPPMERTGG [P16W] | 2.17
58 | HPDPAPFCADNPSELPAPMERTGG [P17A] | 2.73
59 | HPDPAPFCADNPSELPCPMERTGG [P17C] | 2.52
60 | HPDPAPFCADNPSELPDPMERTGG [P17D] | 2.93
61 | HPDPAPFCADNPSELPEPMERTGG [P17E] | 3.41
62 | HPDPAPFCADNPSELPFPMERTGG [P17F] | 2.4
63 | HPDPAPFCADNPSELPGPMERTGG [P17G] | 2.6
64 | HPDPAPFCADNPSELPHPMERTGG [P17H] | 2.61
65 | HPDPAPFCADNPSELPIPMERTGG [P17I] | 2.63
66 | HPDPAPFCADNPSELPKPMERTGG [P17K] | 2.92
67 | HPDPAPFCADNPSELPLPMERTGG [P17L] | 2.76
68 | HPDPAPFCADNPSELPMPMERTGG [P17M] | 2.54
69 | HPDPAPFCADNPSELPNPMERTGG [P17N] | 2.65
70 | HPDPAPFCADNPSELPQPMERTGG [P17Q] | 3.02
71 | HPDPAPFCADNPSELPRPMERTGG [P17R] | 2.62
72 | HPDPAPFCADNPSELPSPMERTGG [P17S] | 2.92

Row | Variant | protein stability index
73 | HPDPAPFCADNPSELPVPMERTGG [P17V] | 2.82
74 | HPDPAPFCADNPSELPWPMERTGG [P17W] | 2.54
75 | HPDPAPFCADNPSELPYPMERTGG [P17Y] | 2.86
76 | HPDPAPFCADNPSELPPAMERTGG [P18A] | 2.48
77 | HPDPAPFCADNPSELPPCMERTGG [P18C] | 2.94
78 | HPDPAPFCADNPSELPPDMERTGG [P18D] | 3.27
79 | HPDPAPFCADNPSELPPEMERTGG [P18E] | 3.32
80 | HPDPAPFCADNPSELPPFMERTGG [P18F] | 2.7
81 | HPDPAPFCADNPSELPPGMERTGG [P18G] | 2.79
82 | HPDPAPFCADNPSELPPHMERTGG [P18H] | 2.69
83 | HPDPAPFCADNPSELPPIMERTGG [P18I] | 2.82
84 | HPDPAPFCADNPSELPPKMERTGG [P18K] | 2.53
85 | HPDPAPFCADNPSELPPLMERTGG [P18L] | 2.95
86 | HPDPAPFCADNPSELPPMMERTGG [P18M] | 2.68
87 | HPDPAPFCADNPSELPPNMERTGG [P18N] | 3.2
88 | HPDPAPFCADNPSELPPQMERTGG [P18Q] | 3.42
89 | HPDPAPFCADNPSELPPRMERTGG [P18R] | 2.8
90 | HPDPAPFCADNPSELPPSMERTGG [P18S] | 3.05
91 | HPDPAPFCADNPSELPPTMERTGG [P18T] | 3.12
92 | HPDPAPFCADNPSELPPVMERTGG [P18V] | 3.15
93 | HPDPAPFCADNPSELPPWMERTGG [P18W] | 2.35
94 | HPDPAPFCADNPSELPPYMERTGG [P18Y] | 2.61
95 | HPDPAPFCADNPSELPPPMGRTGG [E20G] | 1.73
